Test results: patent US20140271478A1 (University of California, published 2014)
Changes are numbered by the printed parent chain.

T1: mouse integrin β8 (mouse, UniProt Q0VBD0 22-767)
T1 construct: whole, on cells; also called mouse β8; itgb8
T1 sequence (looked up): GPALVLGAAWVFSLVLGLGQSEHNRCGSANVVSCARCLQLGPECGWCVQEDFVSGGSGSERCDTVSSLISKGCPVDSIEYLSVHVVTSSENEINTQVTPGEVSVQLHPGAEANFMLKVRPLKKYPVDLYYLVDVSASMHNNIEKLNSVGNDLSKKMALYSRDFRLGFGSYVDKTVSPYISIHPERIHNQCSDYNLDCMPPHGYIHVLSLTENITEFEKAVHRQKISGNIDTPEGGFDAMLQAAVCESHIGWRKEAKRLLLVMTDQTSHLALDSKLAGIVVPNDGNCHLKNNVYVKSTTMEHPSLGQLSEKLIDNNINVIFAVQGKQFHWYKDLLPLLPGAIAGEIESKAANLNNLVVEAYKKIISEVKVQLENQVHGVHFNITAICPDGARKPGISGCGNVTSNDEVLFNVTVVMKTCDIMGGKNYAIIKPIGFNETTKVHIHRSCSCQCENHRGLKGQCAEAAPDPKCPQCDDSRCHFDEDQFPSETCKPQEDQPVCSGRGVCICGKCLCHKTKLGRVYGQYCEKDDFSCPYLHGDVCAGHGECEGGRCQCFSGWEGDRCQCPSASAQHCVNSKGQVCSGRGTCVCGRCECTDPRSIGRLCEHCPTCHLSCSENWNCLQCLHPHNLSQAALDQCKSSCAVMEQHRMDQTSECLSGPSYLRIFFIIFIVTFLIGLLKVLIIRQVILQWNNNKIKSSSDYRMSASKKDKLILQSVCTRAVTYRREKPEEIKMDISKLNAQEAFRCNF

T2: human integrin β8 swap construct RKMAFY (SEQ ID NO:130) (human, UniProt P26012 43-769)
T2 sequence: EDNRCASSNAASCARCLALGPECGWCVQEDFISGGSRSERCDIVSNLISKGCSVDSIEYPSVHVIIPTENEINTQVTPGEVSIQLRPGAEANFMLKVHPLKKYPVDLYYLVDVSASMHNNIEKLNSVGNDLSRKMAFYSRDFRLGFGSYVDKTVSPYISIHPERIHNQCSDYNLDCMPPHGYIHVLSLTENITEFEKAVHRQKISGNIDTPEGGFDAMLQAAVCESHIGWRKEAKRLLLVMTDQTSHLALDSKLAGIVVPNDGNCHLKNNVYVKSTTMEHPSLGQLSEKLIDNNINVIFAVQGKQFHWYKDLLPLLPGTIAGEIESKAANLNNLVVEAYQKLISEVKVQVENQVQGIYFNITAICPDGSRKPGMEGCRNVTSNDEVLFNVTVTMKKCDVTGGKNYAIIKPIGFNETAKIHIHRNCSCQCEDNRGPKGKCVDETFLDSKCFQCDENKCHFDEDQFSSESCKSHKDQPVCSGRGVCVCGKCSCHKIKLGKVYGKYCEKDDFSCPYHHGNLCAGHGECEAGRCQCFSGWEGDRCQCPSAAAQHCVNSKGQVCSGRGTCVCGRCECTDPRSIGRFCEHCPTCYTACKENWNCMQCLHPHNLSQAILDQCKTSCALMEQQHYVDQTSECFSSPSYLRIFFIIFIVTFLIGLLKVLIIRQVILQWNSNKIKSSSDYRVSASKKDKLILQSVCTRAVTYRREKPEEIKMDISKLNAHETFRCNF

T3: human integrin β8 swap construct RKMALF (SEQ ID NO:134) (human, UniProt P26012 43-769)
T3 sequence: T2 sequence with F137L, Y138F

B1: 37E1B5 antibody (antibody, V domains shown)
VH: EVQLVESGGGLVQPGGSLNLSCAVSGFVFSRYWMSWVRQAPGKGLEWIGEINPDSSTINYTSSLKDKFIISRDNAKNTLYLQMNKVRSEDTALYYCACLITTEDYWGQGTSVTVSS
VL: QIVLTQSPSSMYASLGERVTIPCKASQDINSYLSWFQQKPGKSPKTLIYYANRLVDGVPSRFSGSGSGQDYSLTISSLEYEDMGIYYCLQYDEFPYTFGGGTKLEIK
B2: 14E5 antibody (antibody, V domains shown)
VH: EVQLQQSGAELMKPGASVKISCKATGYTFSTYWIEWIKQRPGHGLEWIGHILPGSVITNYNEKFKGKAAITADTSSNTSYMQLSSLTSEDSAVYYCARWGWDSYWGQGTLVTVSS
VL: DIEMTQSPSSLSASLGDRVTISCSTSQDISSSLNWYQQKPDGTVTLLIYYTSNLHSGVPSRFSGSGSGTDYSLTISNLEPEDIATYYCQQYSKLPYTFGGGTKLEIKR
notes: Mouse hybridoma antibody; also called hybridoma clone 14E5
B3: 11E8 antibody (antibody, V domains shown)
VH: EVQLQQSGPELMKTGASVKISCKATGYTFSSYWIEWVKQRPGHGLEWIGDILPGSGTTNYNEKFKGRATVTADRSSNTAYMQLSSLTYGDSAVYYCATWGWDTYWDQGTSVTVSS
VL: B2 VL with E3V, T25A, D28G, S31N, S32Y, T45K, N53S, K93N
notes: Mouse hybridoma antibody

Key:
Test in all cases: cell staining of β8 amino acid swap constructs (175-180)
mouse integrin β8 = biological target: T1, mouse integrin β8
[1] = biological target: T2, human integrin β8 swap construct RKMAFY …
[2] = biological target: T3, human integrin β8 swap construct RKMALF …

Binder	% positive (mouse integrin β8) [%]	% positive [1] [%]	% positive [2] [%]
B1	0	89	131
B2	0	6	150
B3	0	108	125
